Experimental findings from PMC3814767, “Target Specificity of the E3 Ligase LUBAC for Ubiquitin and NEMO Relies on Different Minimal Requirements* ^([image sbox.jpg])” (The Journal of Biological Chemistry, 2013) are described below.

This experiment addresses T1, N-terminal TAMRA-labeled ubiquitin (wild type) (UniProt P0CG48 1-76, TAMRA (5-carboxytetramethylrhodamine) label on the N-terminus).
T1 construct: also called ^TAMRAubiquitin; ^TAMRAUb; source: chemically synthesized (according to El Oualid et al.), purified over Resource S and gel filtration (Superdex 75)
Briefly: fluorescence polarisation; TAMRA-ubiquitin 1 nM, HOIP^LDD in 1:1 serial dilutions, three repeats; 20 mM Hepes pH 7.5, 150 mM NaCl, 5 mM βME, 1 g/liter chicken ovalbumin; fit to a 1:1 non-linear binding model. To be noted: both partners purified. On the technique in general: Polarisation of emitted light reports the rotation of a fluorescent probe.

B1: HOIP linear ubiquitin chain determining domain (LDD) (domain or fragment, UniProt Q96EP0 910-1072, looked up)
chain: KCPEPNCRVKKSLHGHHPRDCLFYLRDWTALRLQKLLQDNNVMFNTEPPAGARAVPGGGCRVIEQKEVPNGLRDEACGKETPAGYAGLCQAHYKEYLVSLINAHSLDPATLYEVEELETATERYLHVRPQPLAGEDPPAYQARLLQKLTEEVPLGQSIPRRRK
notes: HOIP (RNF31), the C-terminal linear ubiquitin chain determining domain (LDD); also called HOIP^LDD; HOIP LDD domain
Usually Kd stands for the constant that tells how readily two partners part at equilibrium. The molecule B1 returned a Kd of 160 ± 40 µM.
